Source: the supplement of paper PMC12764529

Assay: folding stability dG unfold (combined trypsin and chymotrypsin); higher = more stable
Description: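 Folding stability of de novo designed mini-proteins (<80 aa, no Cys; designed by TrROS, TrMRF, ProteinMPNN and the joint model) was measured by cDNA display proteolysis with trypsin and chymotrypsin. Each protease was used at 11 concentrations in a threefold dilution series plus a no-protease condition. K50 was inferred by Bayesian fitting of sequencing counts, and dG unfold was derived against a sequence-predicted unfolded-state K50 (Tsuboyama et al. method). Sequences shown include variable-length N-terminal GS-type padding (SAGGSAGG...) inside a display construct carrying a PA tag. Rows were kept only if the AF2 dimer inter-PAE was >15, to exclude likely homo-oligomers.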

Sequence: SAGGSAGGSAGVDFFKAPDGSEYAVVVARGKDADIPVLTRVDDGNDALAERFGLPKEKIGSAGGSAGGSAGG [r11_1039_TrMRF]
- folding stability dG unfold: < -1 kcal/mol

Sequence: SAGGSAGGAVRVDDSEIGPDRAAPLPGNRSLEVRPDSVTVTTTDPSTNTPTTTTLPYSEVERLLSAGGSAGG [r6_942_JUSTAS]
- folding stability dG unfold: < -1 kcal/mol

Sequence: SAGGIKPGQQWRIRSPNGPIPIRVRGGQIKIRNNDNGKKRTYPVPGDTIEEIVDDLRDHPGMEIEPLSAGGS [r16_583_TrROS]
- folding stability dG unfold: < -1 kcal/mol

Sequence: SAGGSAGGSAGGIEVDPDYAMITFPIPPNETIKFKLPNEKLKIEVPPGKPISIYIPAKDSAGGSAGGSAGGS [r10_464_TrROS]
- folding stability dG unfold: < -1 kcal/mol

Sequence: SAGGSAGGSAGEKPIYYRIKHRNPANGQKVKHEIPFPPNDADEIKEQMEKQPGIDEIEPFSAGGSAGGSAGG [r17_438_TrROS]
- folding stability dG unfold: < -1 kcal/mol

Sequence: SAGITIDELRNQPPKKRVTEVNWNPNQGNYRVEVVRPDPDGKPKKHEYEVNSPQQIRDKLKNGFDYIHISAG [r5_905_TrROS]
- folding stability dG unfold: < -1 kcal/mol

Sequence: SAGGSMETIELTINLGSKTITKTEEVSPGREEELIEKIREEGYPEIKVDKITIKPPDGSTERTIGLKSAGGS [r8_219_JUSTAS]
- folding stability dG unfold: < -1 kcal/mol

Sequence: SAGGSAGGSTAEEVAEALGFEEAEVTPTGLVEVRKLPNGGYARAYRYTLKLRSPDGTERTFPISAGGSAGGS [r12_221_TrMRF]
- folding stability dG unfold: < -1 kcal/mol

Sequence: SAGGFPISIERWDPDGKKRRREIPMDDPDEIKEFLDDLPPDRPVRIHMPNPQHFNALKNAGFDEVEMMSAGG [r13_476_TrROS]
- folding stability dG unfold: < -1 kcal/mol

Sequence: SAGGSAGGSAGPRVTLTPDPNSDYVLVTTYPGDGSSTTSNVPVSELEKVRKELPADFTLASAGGSAGGSAGG [r11_569_JUSTAS]
- folding stability dG unfold: < -1 kcal/mol

Sequence: SAGGIWIDNPDQILDQIKENPNQPRTIQVPMDPDNGQIPPDIKKALKEPGMPVQHDPNGYMTFKIPPSAGGS [r16_335_TrROS]
- folding stability dG unfold: < -1 kcal/mol

Sequence: SAGGSAPIEIEVRLGDKPRTIDIEPNPEGMYPIKVYNDGPGKPKEHMIPPNNLDELKNLDPDRIEISAGGSA [r15_629_TrROS]
- folding stability dG unfold: < -1 kcal/mol

Sequence: SAGGSAGGSRYFIRIELRHPDDGQEYEPTIPINPGQTEEQVKQEIREHHPGADIKDIEIYPMDSAGGSAGGS [r12_738_TrROS]
- folding stability dG unfold: < -1 kcal/mol

Sequence: SAGGSAGGSPPPKVKVKKFHRDPPNGYVRANIEFPDKRDIEIQMENMPPDQAEEKAKNLAKKLSAGGSAGGS [r20_181_TrROS]
- folding stability dG unfold: < -1 kcal/mol

Sequence: SAGGSAGGSAGGMTETIPVSPSELDEVIEEAKKKGLKKIVLKDPNSSKKTVITKDKVEDESAGGSAGGSAGG [r7_564_JUSTAS]
- folding stability dG unfold: < -1 kcal/mol

Sequence: SAGGGMRPVPVSEIIAKLKEEGYTVSKVSVYRPGSGEKLGTYDPNTPVVIPADEPDAVIEPVVEPKGSAGGS [r8_243_JUSTAS]
- folding stability dG unfold: < -1 kcal/mol

Sequence: SAGGITLKEIREALKKGHMMRIEGPDGGKRRIPIDDLKDMPGIKPGMPLEDLKVRKIEWVPPDDGQPMSAGG [r13_587_TrROS]
- folding stability dG unfold: < -1 kcal/mol

Sequence: SAGGSAGGSAGTVTEKTSIPDPNSDNSLTVTKTPNSITMTNPKTGDVIISNNSTVTKIKKSAGGSAGGSAGG [r17_544_JUSTAS]
- folding stability dG unfold: < -1 kcal/mol

Sequence: SAGGSAGGSMKYLVRFPEGGSLPFPDGSSVPMKPGEVLEVESPADVEALKKLAPGRDIEVEPVSAGGSAGGS [r12_987_TrMRF]
- folding stability dG unfold: < -1 kcal/mol

Sequence: SAGGSAGGSAGGMLPIPKIEVKPGDEEEAKKTKEKLKKELEEKLGKKAKNLKVDFNPSLSAGGSAGGSAGGS [r10_1216_JUSTAS]
- folding stability dG unfold: < -1 kcal/mol

Sequence: SAGGSAGGSVVIPMEDLSNMPWERIRDQIKKSPDPVTITMPNPEGMKRAQDLFKEEGVPITVVSAGGSAGGS [r12_97_TrROS]
- folding stability dG unfold: < -1 kcal/mol

Sequence: SAGGSAGGMKTEVVEETVPLRNEDGKLLPSDALLETELPDKKVLTLVERDPNSDTVKTTRVILESAGGSAGG [r6_659_JUSTAS]
- folding stability dG unfold: < -1 kcal/mol

Sequence: SAGGSAGGSEKYRVRFPDGQPLPFPNGKSHPMKPGEEMEIESPEDKDRLKDHFPGFPVEVEPLSAGGSAGGS [r12_987_TrROS]
- folding stability dG unfold: < -1 kcal/mol

Sequence: SAGGSAGGSAGGYRIKIKMPNGRPREIPLEPDDPEEVKEQAKELSSRGYDVTKVEVEPPSAGGSAGGSAGGS [r10_231_TrROS]
- folding stability dG unfold: < -1 kcal/mol

Sequence: SSPVVEAIEAEAAARGLPVEVSVSPDENGNPVVPVRVLTPEVLAAGEPRLAERVRPVTTDGRTVTVRVVASA [r9_489_JUSTAS]
- folding stability dG unfold: < -1 kcal/mol

Sequence: SAGGSAGGSAGGFPNMPIKEIKIDNPERVPGKPRVRIEFTFPGGPRKFMMPADDLQDMFSAGGSAGGSAGGS [r10_771_TrROS]
- folding stability dG unfold: < -1 kcal/mol

Sequence: SAGGSAGGSAGGMKVETRTITDPGGIEKVKEDYPGYTVEKTEKLPDGSTKVTLKYPILKSAGGSAGGSAGGS [r10_764_JUSTAS]
- folding stability dG unfold: < -1 kcal/mol

Sequence: SAGGSAGGSAGGPEPIPVKISMWNPNGKPMGTFEFPIETPEDLDEFAREDGMPFRVEPESAGGSAGGSAGGS [r10_958_TrROS]
- folding stability dG unfold: < -1 kcal/mol

Sequence: SAGGSAGGSAGSNKVSPVITLEEDPDGTVTRTVTLKINTPEGKTLTTTSTDPLSPDSALKRSAGGSAGGSAG [r3_180_JUSTAS]
- folding stability dG unfold: < -1 kcal/mol

Sequence: SAGIKIEWDPDEGYIKIEMPYDSPAEANENIQEIHEKFGLKDVTAERDPNNGTVEHTIRIKNPEALKELSAG [r5_598_TrROS]
- folding stability dG unfold: < -1 kcal/mol

Sequence: SAGGSAGGSAGWEMLRMIKENAKPGKPTTITIHPNFPMEEINKELIEDAPIDDVEYTPMPSAGGSAGGSAGG [r11_524_TrROS]
- folding stability dG unfold: < -1 kcal/mol

Sequence: SAGGGPPLRVSTESEVYEDPETGVTYVRRRIHVEGGLVVEEELKETVNPEDPGAEVTLVSRRESPALSAGGS [r8_241_JUSTAS]
- folding stability dG unfold: < -1 kcal/mol

Sequence: SAGGPKIDVEKEKSPERGRRKIEIRWPGSGQEMDIFLPDDDPDKIAKALQNAPFGSFHEAIREALRDSAGGS [r8_484_TrROS]
- folding stability dG unfold: < -1 kcal/mol

Sequence: SAGGSAGGSAGTVVVITPKNGEKFVFEAESSELPKIKEAFPELKIKDIDPGKGFIHVEVDSAGGSAGGSAGG [r17_22_TrMRF]
- folding stability dG unfold: < -1 kcal/mol

Sequence: SAGGSAGGSSDIKIYEIPEKGEIVVERPPSEKVTIDINNHPLEGSLTPLPGNKYLWKVKIKSPSAGGSAGGS [r12_970_JUSTAS]
- folding stability dG unfold: < -1 kcal/mol

Sequence: SAGSASPVVLKLTDPSSDKTYLVEVEVPEEEATWTLRDPSNGKEVEKVKMTLEELYAELKKKGLNPEPLSAG [r5_291_JUSTAS]
- folding stability dG unfold: < -1 kcal/mol

Sequence: SAGGSAGGSAGGAKELADRMRDAGYEPEADPDSGKIEVRHPNPNGKRMKREINIPPEDISAGGSAGGSAGGS [r10_1173_TrROS]
- folding stability dG unfold: < -1 kcal/mol

Sequence: SAGGSAGGSEIEIMAPFKSPEDARDQIREFAREKGLEIKPKKIEVHRNPNGWQWVTFKIEIKDSAGGSAGGS [r12_924_TrROS]
- folding stability dG unfold: < -1 kcal/mol

Sequence: SAGGSATIEIDPPHGKIEIEVNVPVYEKRKDPDGKEEPEPQELPPEEAQEFAKMMADTFAQKLNGKSAGGSA [r15_365_TrROS]
- folding stability dG unfold: < -1 kcal/mol

Sequence: SAGGSAGGSSMPSDVPVDIPVKVTRTVPNGPTSEEELVLSTTRPDASIEEVLEELKKKGWTIESAGGSAGGS [r20_27_JUSTAS]
- folding stability dG unfold: < -1 kcal/mol

Sequence: SAGGSAGGSDPNIKVEIWHPNNGQPRTFPAGDSIDELAENMPGPVQIKIEYPGKEKTLMIPFKSAGGSAGGS [r12_1056_TrROS]
- folding stability dG unfold: < -1 kcal/mol

Sequence: SAGGSAGGSAGMVRIKITHNNGRKNTFKIPPNITEVKEVEIKLPPELQDNITKVEIEPLDSAGGSAGGSAGG [r17_528_TrROS]
- folding stability dG unfold: < -1 kcal/mol

Sequence: SAGGMEEKVINIPLSNGEEATITITIENEPGKNKAIVPINSKSVPAEELAKKLKKELPESITDLTVVKSAGG [r13_404_JUSTAS]
- folding stability dG unfold: < -1 kcal/mol

Sequence: SAGGSAGGSAGGDNIKIDIDFDPGYGVFTSKIYPPNGGPISDLSIKIPPMSPEDLDKFKSAGGSAGGSAGGS [r10_717_TrROS]
- folding stability dG unfold: < -1 kcal/mol

Sequence: SAGGKITIEMPEDGMYRITIRNPNKGEPVSEIPIPANQIQELAKENGEPMPIEDIVRKLGYPIEIERYSAGG [r13_836_TrROS]
- folding stability dG unfold: < -1 kcal/mol

Sequence: SAGGSAGGMSLIVKSEEEAREILKKLGWKVKKLNITKLKDESGTVKIPVEIEPVPKGKLSEELISAGGSAGG [r6_981_JUSTAS]
- folding stability dG unfold: < -1 kcal/mol

Sequence: SAGGSAGGSGKKYILRFKNPEKARSFAKPLGLKVKPGDDLPVDDPEKFLKSLPLLKDIVVEDKSAGGSAGGS [r12_571_TrMRF]
- folding stability dG unfold: < -1 kcal/mol

Sequence: SAGGSAGGSAGGMTTTVIEVDVEPGEVSEEEIKKRLAPLTGKPIEITTDPSGIPVITVEESAGGSAGGSAGG [r7_330_JUSTAS]
- folding stability dG unfold: < -1 kcal/mol

Sequence: SAGGSAGGSNIKDALDNFPPGYQTDVDPNSGTISVRFPDEGWEHQIEIPAEEGKVEINEWKPYSAGGSAGGS [r12_82_TrROS]
- folding stability dG unfold: < -1 kcal/mol

Sequence: SAGGSAGGSAGMEEIKERYRKELEAEGRPVKEIKAEKLPPTNTIVVTLDFENKPIVIPLPSAGGSAGGSAGG [r11_279_JUSTAS]
- folding stability dG unfold: < -1 kcal/mol

Sequence: SAGGSAPFQIKEPDGKTETFPMNDIPPDLIKNFPDVKITMPGGQERKIPPGQKLSPGGMMTIQIPKSAGGSA [r15_733_TrROS]
- folding stability dG unfold: < -1 kcal/mol

Sequence: SAGGSAGGSAGGSPPIRIRFPNNGKTIPIDGPDDLKDYLRDNGLPIDPDDLDKIDEVEWSAGGSAGGSAGGS [r4_104_TrROS]
- folding stability dG unfold: < -1 kcal/mol

Sequence: SAGGSAGGSAGSVAEALADKTITVTSPSSSTPYTATITPGADDTLRVGSPGSSGTDISVARLSAGGSAGGSA [r18_169_JUSTAS]
- folding stability dG unfold: < -1 kcal/mol

Sequence: SAGGSAGGSAGTLDELKNAPPGEERTVRVDFQIYEMRPDPNGKPEMEPVSPMRMEITFKPSAGGSAGGSAGG [r11_36_TrROS]
- folding stability dG unfold: < -1 kcal/mol

Sequence: SSITFPVPKEEKEPDPDGDPHPRREPKPVPIPPDAIRDQIYNMIRTELRDAGLPDMTEEDIDDPEFIDRLSA [r9_263_TrROS]
- folding stability dG unfold: < -1 kcal/mol

Sequence: SAGGSAGGSAKIIVWGRTPEGAKEKAKEFADNIQKEMQENGMPPKNIKIPIEIFDPEAMPDSAGGSAGGSAG [r3_249_TrROS]
- folding stability dG unfold: < -1 kcal/mol

Sequence: SAGGSAGGSAMSPSLPGKYEVLLTDPRPGVGPPVTRRVTLTPEEIEATIPPGAGREVVELPSAGGSAGGSAG [r3_223_JUSTAS]
- folding stability dG unfold: < -1 kcal/mol
